The target of the test is T1, PD-L1 (Programmed death-ligand 1) on MDA-MB-231 cancer cells (UniProt Q9NZQ7 19-290, limits assumed).
T1 construct: whole, on cells; Endogenous PD-L1 of the MDA-MB-231 cell line
The test is described as follows: concluded from co-culture 4-1BB reporter assay with PD-L1-expressing MDA-MB-231 cells. (Reporter assays use an easily measured gene product as a stand-in for the process of interest.)

T1 sequence (Q9NZQ7 19-290 limits assumed): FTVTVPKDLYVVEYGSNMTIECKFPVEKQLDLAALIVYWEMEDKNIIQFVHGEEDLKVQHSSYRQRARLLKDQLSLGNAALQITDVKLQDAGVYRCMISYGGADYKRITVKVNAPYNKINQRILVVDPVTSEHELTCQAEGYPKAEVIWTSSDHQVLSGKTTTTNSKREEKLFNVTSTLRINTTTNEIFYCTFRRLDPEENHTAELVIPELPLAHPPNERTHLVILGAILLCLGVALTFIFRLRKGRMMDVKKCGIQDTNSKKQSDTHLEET

B1: αCEA-αPDL1-hyFc-4-1BBL 융합단백질 이량체 (Fc fusion)
chain: EVQLVESGGGVVQPGRSLRLSCSASGFDFTTYWMSWVRQAPGKGLEWIGEIHPDSSTINYAPSLKDRFTISRDNAKNTLFLQMDSLRPEDTGVYFCASLYFGFPWFAYWGQGTPVTVSSGGGGSGGGGSGGGGSDIQLTQSPSSLSASVGDRVTITCKASQDVGTSVAWYQQKPGKAPKLLIYWTSTRHTGVPSRFSGSGSGTDFTFTISSLQPEDIATYYCQQYSLYRSFGQGTKVEIKGGGGSGGGGSGGGGSGGGGSEVQLLESGGGLVQPGGSLRLSCAASGFTFSSYDMSWVRQAPGKSLEWVATISDAGGYIYYSDSVKGRFTISRDNSKNTLYLQMNSLRAEDTAVYICAREFGKRYALDYWGQGTTVTVSSGGGGSGGGGSGGGGSDIQMTQSPSSLSASVGDRVTITCKASQDVTPAVAWYQQKPGKAPKLLIYSTSSRYTGVPSRFSGSGSGTDFTFTISSLQPEDIATYYCQQHYTTPLTFGQGTKLEIKGGGGSGGGGSGGGGSEPKSCDKTHTCPPCPSHTQPLGVFLFPPKPKDQLMISRTPEVTCVVVDVSQEDPEVQFNWYVDGVEVHNAKTKPREEQFNSTYRVVSVLTVLHQDWLNGKEYKCKVSNKGLPSSIEKTISKAKGQPREPQVYTLPPSQEEMTKNQVSLTCLVKGFYPSDIAVEWESNGQPENNYKTTPPVLDSDGSFFLYSRLTVDKSRWQEGNVFSCSVLHEALHNHYTQKSLSLSLGKGGGGSDPAGLLDLRQGMFAQLVAQNVLLIDGPLSWYSDPGLAGVSLTGGLSYKEDTKELVVAKAGVYYVFFCLELRRVVAGEGSGSVSLALHLQPLRSAAGAAALALTVDLPPASSEARNSAFGFQGRLLHLSAGQRLGVHLHTEARARHAWQLTQGATVLGLFRVCPEIPAGLPSPRSE
notes: Homodimer by disulfide bonds in the linker; also called IO-129; αCEA-αPDL1-hyFc-h4-1BBL 융합단백질 이량체
In the case of B1, the binding result is “binds”.

Source of the values: patent KR20210098147A (dated 2021).
